Reference: US20220127354A1 (Amgen, published 2022)

T1: caCDH19(1-42)::FLAG::caCDH19(43-770) (construct Q, Ca EC1-5) (dog)
T1 construct: also called caCDH19(44-770); dog Cadherin19
T1 chain: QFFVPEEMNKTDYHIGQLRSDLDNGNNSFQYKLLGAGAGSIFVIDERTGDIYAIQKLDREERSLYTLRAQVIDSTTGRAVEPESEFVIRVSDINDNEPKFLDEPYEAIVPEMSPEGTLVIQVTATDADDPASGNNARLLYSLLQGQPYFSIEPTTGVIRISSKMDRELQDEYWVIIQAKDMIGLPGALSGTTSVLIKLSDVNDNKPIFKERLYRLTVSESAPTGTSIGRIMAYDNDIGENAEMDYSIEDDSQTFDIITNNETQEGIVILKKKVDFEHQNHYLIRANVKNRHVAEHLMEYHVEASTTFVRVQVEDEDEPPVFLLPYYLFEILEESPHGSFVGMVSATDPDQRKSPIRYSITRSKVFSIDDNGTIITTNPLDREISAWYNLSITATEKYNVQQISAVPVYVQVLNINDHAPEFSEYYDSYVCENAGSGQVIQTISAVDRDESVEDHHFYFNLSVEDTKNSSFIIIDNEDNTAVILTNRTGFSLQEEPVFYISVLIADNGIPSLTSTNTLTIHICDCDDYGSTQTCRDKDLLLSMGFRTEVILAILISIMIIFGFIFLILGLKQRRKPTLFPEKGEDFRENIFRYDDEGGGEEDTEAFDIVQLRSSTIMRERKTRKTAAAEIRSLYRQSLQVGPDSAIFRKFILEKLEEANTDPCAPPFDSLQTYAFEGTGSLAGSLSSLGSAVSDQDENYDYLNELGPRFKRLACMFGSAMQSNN

T2: caCDH19(1-43)::FLAG::caCDH19(44-87)::rhCDH19(89-114)::caCDH19(115-770) (construct T, rh EC1b) (rhesus macaque/dog chimera)
T2 construct: leader left out
T2 chain: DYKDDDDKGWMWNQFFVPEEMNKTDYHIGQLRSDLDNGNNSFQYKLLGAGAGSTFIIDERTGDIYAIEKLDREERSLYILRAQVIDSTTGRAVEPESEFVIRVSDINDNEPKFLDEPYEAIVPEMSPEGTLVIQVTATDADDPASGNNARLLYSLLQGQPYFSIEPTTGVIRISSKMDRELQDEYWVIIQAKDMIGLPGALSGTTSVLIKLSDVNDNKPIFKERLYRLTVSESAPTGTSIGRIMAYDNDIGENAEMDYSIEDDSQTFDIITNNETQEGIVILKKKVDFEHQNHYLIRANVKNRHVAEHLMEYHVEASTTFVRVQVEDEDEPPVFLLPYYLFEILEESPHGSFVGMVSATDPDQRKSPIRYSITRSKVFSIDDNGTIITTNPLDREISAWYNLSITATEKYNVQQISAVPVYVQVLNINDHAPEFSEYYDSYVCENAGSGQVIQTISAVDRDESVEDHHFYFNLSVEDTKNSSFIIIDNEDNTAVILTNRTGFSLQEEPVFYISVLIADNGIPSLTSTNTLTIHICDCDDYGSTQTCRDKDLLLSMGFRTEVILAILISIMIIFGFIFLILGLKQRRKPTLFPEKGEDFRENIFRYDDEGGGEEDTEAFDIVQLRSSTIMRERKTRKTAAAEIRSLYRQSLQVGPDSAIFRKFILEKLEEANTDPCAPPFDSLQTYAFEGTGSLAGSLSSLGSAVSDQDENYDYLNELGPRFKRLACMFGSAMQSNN

T3: muCDH19(44-770)::huCDH19(271) with leader and FLAG (construct Z) (human/mouse chimera)
T3 construct: leader (1-43 of the entry) left out
T3 chain: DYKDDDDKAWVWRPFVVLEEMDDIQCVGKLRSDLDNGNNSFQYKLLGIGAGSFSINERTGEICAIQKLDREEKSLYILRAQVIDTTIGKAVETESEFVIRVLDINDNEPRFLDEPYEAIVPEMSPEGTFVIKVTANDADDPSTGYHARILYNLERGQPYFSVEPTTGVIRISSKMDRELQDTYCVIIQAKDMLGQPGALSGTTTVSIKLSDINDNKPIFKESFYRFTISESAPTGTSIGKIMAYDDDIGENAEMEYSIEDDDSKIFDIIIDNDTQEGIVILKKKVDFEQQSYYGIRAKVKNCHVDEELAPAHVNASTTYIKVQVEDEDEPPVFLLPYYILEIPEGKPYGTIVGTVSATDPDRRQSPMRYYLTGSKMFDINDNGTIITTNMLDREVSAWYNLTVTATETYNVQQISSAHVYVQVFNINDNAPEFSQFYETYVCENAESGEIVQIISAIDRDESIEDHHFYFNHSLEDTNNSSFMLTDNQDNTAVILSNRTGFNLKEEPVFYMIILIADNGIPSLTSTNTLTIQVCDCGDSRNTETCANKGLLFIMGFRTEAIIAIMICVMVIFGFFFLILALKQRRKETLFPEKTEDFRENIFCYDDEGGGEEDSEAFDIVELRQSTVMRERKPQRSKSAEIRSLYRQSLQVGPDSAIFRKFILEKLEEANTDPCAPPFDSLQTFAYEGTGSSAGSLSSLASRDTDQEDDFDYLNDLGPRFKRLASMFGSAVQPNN


What was measured:
Experiment in all cases: flow cytometry, transfected 293T cells, 2 mM CaCl2
[1] = target: T1, caCDH19(1-42)::FLAG::caCDH19(43-770) …
Method: (§1) The following binding assay was completed in presence of 2 mM CaCl₂). […] Cells were then washed one time and the amount of cell associated Alexa647-labelled Ab was quantitated by flow cytometry. The experiments included mock transfected controls.

[2] = target: T2, caCDH19(1-43)::FLAG::caCDH19(44-87)::rhC …
Method: as §1

[3] = target: T4, rhCDH19(1-43)::FLAG::rhCDH19(44-141)::caCDH19(141-770) (construct R, rh EC1) (rhesus macaque/dog chimera)
T4 construct: leader (1-43 of the entry) left out
Method: as §1

[4] = target: T5, rhCDH19(1-43)::FLAG::rhCDH19(44-65)::caCDH19(65-770) (construct S, rh EC1a) (rhesus macaque/dog chimera)
T5 construct: leader (1-43 of the entry) left out
Method: as §1

[5] = target: T3, muCDH19(44-770)::huCDH19(271) with …
Method: as §1

| Binder | binding result [1] | binding result [2] | binding result [3] | binding result [4] | binding result [5] |
| --- | --- | --- | --- | --- | --- |
| hu anti-<huCDH19> 26D1.1 (Ab ID 13882) (antibody, human IgG1, lambda, V domains shown, huIgG1z / huLLC-C2; Bin 2) VH: QVQLVQSGAEVKKPGASVKVSCKASRYTFTSYYMSWVRQAPGQGLEWMGIIHPSGGDTTYAQKFQGRVTMTGDTSTSTVYMELSSLRSEDTAVYYCARGGIKLWLHFDYWGQGTLVTVSS VL: not shown | no binding (tested: 5 ug/ml) | binds | binds | binds | – |
| anti-CDH19 antibody 2G6 (Ab ID 13588) (antibody, human IgG1, lambda, V domains shown, Bin 4) VH: QVQLVESGGGVVQPGRSLRLSCAASGFTFSSYGMHWVRQAPGKGLEWVAFIWYDGSNKYYADSVKDRFTISRDNSKNTLYLQMKSLRAEDTAVYYCARRAGIIGTIGYYYGMDVWGQGTTVTVSS VL: SYELTQPPSVSVSPGQTASITCSGDRLGEKYTCWYQQRPGQSPLLVIYQDTKRPSGIPERFSGSNSGNTATLTISGTQAMDEADYYCQAWDSSTVVFGGGTKLTVLG | – | – | – | – | binds |

The next lines start with the values.

| binding result [1] | binding result [2] | binding result [3] | binding result [4] | binding result [5] | Binder |
| --- | --- | --- | --- | --- | --- |
| no binding (tested: 5 ug/ml) | no binding (tested: 5 ug/ml) | binds | no binding (tested: 5 ug/ml) | – | hu anti-<huCDH19> 4A9 (Ab ID 13589) (antibody, human IgG1, lambda, V domains shown, huIgG1z / huLLC-C1; Bin 1) VH: QVQLQESGPGLVKPSETLSLTCTVSGGSISGYYWSWIRQPPGKGLEWFAYFSYSGSTNYNPSLKSRVTLSVDTSKNQFSLKLSSVTAADTAVYYCARNWAFHFDFWGQGTLVTVSS VL: QSVLTQPPSVSGAPGQRVTISCTGSSSNIGTGYAVHWYQQFPGTAPKLLIYGNNNRPSGVPDRFSGSKSGTSASLAITGLQAEDEADYYCQSYDSRLSGWVFGGGTKLTVLG |
| – | – | – | – | no binding (tested: 5 ug/ml) | hu anti-<huCDH19> 4B10 (Ab ID 13590) (antibody, V domains shown, huIgG1z / huKLC; Bin 4) VH: QVQLVESGGGVVQPGRSLRLSCAASGFTFSSYDMHWVRQAPGKGLEWVAVISYDGTNEYYADSVKGRFTISRDTSKNTLYLQMNSLRAEDTAVYYCARERYFDWSFDYWGQGTLVSVSS VL: EIVLTQSPGTLSLSPGERATLSCRASQSVSNTYLAWYHQRPGQAPRLLIYGASSRATGIPDRFSGSGSGTDFALTISSLEPEDFAVYYCQQYSNSWTFGQGTKVEIKR |
